Assay results reported in publication PMC6196983, “The Native Monomer of Bacillus Pumilus Ribonuclease Does Not Exist Extracellularly” (BioMed Research International, 2018).

Biological target: the molecule itself
Assay: NMR self-diffusion (hydrodynamic radius); 1.5 mg/ml binase in D2O at pH 3.0 and pH 6.4; BPP-LED stimulated echo, 600.13 MHz; radius from the Stokes-Einstein equation compared with the theoretical monomer size of 1.6 nm

B1: binase, secreted guanyl-preferring ribonuclease of Bacillus pumilus (enzyme, UniProt P00649 54-162, looked up)
chain: AVINTFDGVADYLIRYKRLPDNYITKSQASALGWVASKGNLAEVAPGKSIGGDVFSNREGRLPSASGRTWREADINYVSGFRNADRLVYSSDWLIYKTTDHYATFTRIR
notes: binase, secreted ribonuclease of Bacillus pumilus (formerly Bacillus intermedius); also called B. pumilus secreted RNase; Bacillus intermedius RNase; source: isolated from B. pumilus culture fluid, purified
Q: B1 was tested. Which “stoichiometry N” value did it give?
A: 2
